Results on four molecules are retold here after patent US20220089722A1 (NANTONG YICHEN BIOPHARMA, published 2022).

Experiment [1] deals with T1, EGFR on F98-EGFR cells (UniProt P00533 25-1210, limits assumed).
T1 construct: whole, on cells
Nature of the experiment: flow cytometry on F98-EGFR cells. As for the experimental part:
F98-EGFR cells (a DMEM containing 10% FBS, 200 μg/ml G418) were cultured. 2×10⁵ cells were washed by precooled PBS for 3 times, and blocked by 2% FBS (soluble to PBS). IgFD-8, IgFD-9, IgFD-10, IgFD-11, IgFD-18, IgFD-19, IgFD-25, IgFD-26 or IgFD-31 (aEGFR expressed in a laboratory as a control) was added and incubated for 2 h at 4° C. (cells were gently mixed during incubation), unbounded antibodies were washed by 2% FBS (soluble to PBS), and then the remaining cells were incubated by FITC anti-human IgGFc(KPL, Inc., MD) for 1 h at 4° C., and washed by 2% FBS (soluble to PBS) for flow cytometry analysis. As shown in FIG. 7 and Table 4, the anti-CD3/anti-EGFR heterodimers in different forms of fusion could bind to EGFR on F98-EGFR cells, and there was no significant difference in the binding capacity of different heterodimers to F98-EGFR.

In experiment [2] the target is T2, CD3 on T cells (Jurkat T cells; PBMC-T cells).
T2 construct: whole, on cells; the target is inferred from the anti-CD3 arm of the constructs
Put plainly: flow cytometry on Jurkat T cells. As for the experimental part:
Jurkat cells (a medium containing 10% FBS) were cultured. 2×10⁵ cells were washed by precooled PBS for 3 times, and blocked by 2% FBS (soluble to PBS). Purified IgFD-11, IgFD-8, IgFD-25, IgFD-26, IgFD-31 or IgFD-36 (aEGFR expressed in a laboratory as a control) were added and incubated for 2 h at 4° C. (cells were gently mixed during incubation), followed by 2% FBS(in PBS) wash. The cells were incubated by FITC anti-human IgGFc (KPL, Inc., MD) for 1 h at 4° C. and subjected to flow cytometry analysis after washing with 2% FBS(in PBS).
In general terms: A flow cytometer gives signals particle by particle.

The target of experiment [3] is T1, EGFR on F98-EGFR cells. Put plainly: cell-based or functional assay.
Experiment [4] deals with T1, EGFR on F98-EGFR cells. Put plainly: flow cytometry on F98-EGFR cells; protein purified on CH1 resin.
For experiment [5], the target named is T2, CD3 on T cells (Jurkat T cells; PBMC-T …). Put plainly: flow cytometry on Jurkat T cells; protein purified on Protein A resin.
Experiment [6] shares this target. Put plainly: flow cytometry on Jurkat T cells; protein purified on CH1 resin.
Experiment [7] deals with T1, EGFR on F98-EGFR cells. Put plainly: flow cytometry on F98-EGFR cells; protein purified on Protein A resin.

As a reminder, the Kd is the equilibrium constant for the complex coming apart. The low end stands for a tighter complex, the high end for a looser complex.

T2 sequence (P07766 23-207): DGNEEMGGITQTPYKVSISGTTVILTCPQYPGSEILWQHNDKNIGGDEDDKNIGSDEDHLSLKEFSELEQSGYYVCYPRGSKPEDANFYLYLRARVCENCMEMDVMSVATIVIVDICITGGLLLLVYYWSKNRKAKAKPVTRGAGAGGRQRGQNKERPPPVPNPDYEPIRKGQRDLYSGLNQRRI

B1: IgFD-25(anti-CD3/EGFR) (bispecific antibody, human IgG1, kappa)
chain 1: EVQLVESGGGLVQPGGSLRLSCAASGFTFNTYAMNWVRQAPGKGLEWVARIRSKYNNYATYYADSVKDRFTISRDDSKNTLYLQMNSLRAEDTAVYYCVRHGNFGNSYVSWFAYWGQGTLVTVSSASTKGPSVFPLAPSSKSTSGGTAALGCLVKDYFPEPVTVSWNSGALTSGVHTFPAVLQSSGLYSLSSVVTVPSSSLGTQTYICNVNHKPSNTKVDKKVEPKSCDKTHTCPPCPAPPVAGPSVFLFPPKPKDTLMISRTPEVTCVVVDVSHEDPEVKFNWYVDGVEVHNAKTKPREEQYNSTYRVVSVLTVLHQDWLNGKEYKCKVSNKGLPSSIEKTISKAKGQPREPQVYTLPPCRDELTKNQVSLWCLVKGFYPSDIAVEWESNGQPENNYKTTPPVLDSDGSFFLYSKLTVDKSRWQQGNVFSCSVMHEALHNHYTQKSLSLSPGK
chain 2: QAVVTQEPSLTVSPGGTVTLTCRSSTGAVTTSNYANWVQQKPDHLFRGLIGGTNKRAPGTPARFSGSLLGDKAALTISGAQPEDEAEYYCALWYSNLWVFGGGTKLTVLKRTVAAPSVFIFPPSDEQLKSGTASVVCLLNNFYPREAKVQWKVDNALQSGNSQESVTEQDSKDSTYSLSSTLTLSKADYEKHKVYACEVTHQGLSSPVTKSFNRGECDKTHTCPPCPAPPVAGPSVFLFPPKPKDTLMISRTPEVTCVVVDVSHEDPEVKFNWYVDGVEVHNAKTKPREEQYNSTYRVVSVLTVLHQDWLNGKEYKCKVSNKGLPSSIEKTISKAKGQPREPQVCTLPPSRDELTKNQVSLSCAVKGFYPSDIAVEWESNGQPENNYKTTPPVLDSDGSFFLVSKLTVDKSRWQQGNVFSCSVMHEALHNHYTQKSLSLSPGKGGSGGSGGGGSGGGGSDIQMTQSPSSLSASVGDRVTITCQASQDISNYLNWYQQKPGKAPKLLIYDASNLETGVPSRFSGSGSGTDFTFTISSLQPEDIATYFCQHFDHLPLAFGGGTKVEIKGGGGSGGGGSGGGGSQVQLQESGPGLVKPSETLSLTCTVSGGSVSSGDYYWTWIRQSPGKGLEWIGHIYYSGNTNYNPSLKSRLTISIDTSKTQFSLKLSSVTAADTAIYYCVRDRVTGAFDIWGQGTMVTVSS
Take B1: the Kd turned out to be 1.12 nM in experiment [1] and 7.72 nM in experiment [2]. Further, in experiment [3], the “Promotion for the specific killing effect of PBMCs on target cells by heterodimers (EC50, pM); F98-EGFR cells, LDH assay” value came out at 11 pM.

B2: IgFD-31(anti-CD3/EGFR) (bispecific antibody)
chain 1: EVQLVESGGGLVQPGGSLRLSCAASGFTFNTYAMNWVRQAPGKGLEWVARIRSKYNNYATYYADSVKDRFTISRDDSKNTLYLQMNSLRAEDTAVYYCVRHGNFGNSYVSWFAYWGQGTLVTVSSASTKGPSVFPLAPSSKSTSGGTAALGCLVKDYFPEPVTVSWNSGALTSGVHTFPAVLQSSGLYSLSSVVTVPSSSLGTQTYICNVNHKPSNTKVDKKVEPKSCGGSGAKLAALKAKLAALKGGGGSDKTHTCPPCPAPPVAGPSVFLFPPKPKDTLMISRTPEVTCVVVDVSHEDPEVKFNWYVDGVEVHNAKTKPREEQYNSTYRVVSVLTVLHQDWLNGKEYKCKVSNKGLPSSIEKTISKAKGQPREPQVYTLPPSRDELTKNQVSLTCLVKGFYPSDIAVEWESNGQPENNYKTTPPVLDSDGSFFLYSKLTVDKSRWQQGNVFSCSVMHEALHNHYTQKSLSLSPGK
chain 2: QAVVTQEPSLTVSPGGTVTLTCRSSTGAVTTSNYANWVQQKPDHLFRGLIGGTNKRAPGTPARFSGSLLGDKAALTISGAQPEDEAEYYCALWYSNLWVFGGGTKLTVLKRTVAAPSVFIFPPSDEQLKSGTASVVCLLNNFYPREAKVQWKVDNALQSGNSQESVTEQDSKDSTYSLSSTLTLSKADYEKHKVYACEVTHQGLSSPVTKSFNRGECGGGGSELAALEAELAALEAGGSGDKTHTCPPCPAPPVAGPSVFLFPPKPKDTLMISRTPEVTCVVVDVSHEDPEVKFNWYVDGVEVHNAKTKPREEQYNSTYRVVSVLTVLHQDWLNGKEYKCKVSNKGLPSSIEKTISKAKGQPREPQVYTLPPSRDELTKNQVSLTCLVKGFYPSDIAVEWESNGQPENNYKTTPPVLDSDGSFFLYSKLTVDKSRWQQGNVFSCSVMHEALHNHYTQKSLSLSPGKGGSGGSGGGGSGGGGSDIQMTQSPSSLSASVGDRVTITCQASQDISNYLNWYQQKPGKAPKLLIYDASNLETGVPSRFSGSGSGTDFTFTISSLQPEDIATYFCQHFDHLPLAFGGGTKVEIKGGGGSGGGGSGGGGSQVQLQESGPGLVKPSETLSLTCTVSGGSVSSGDYYWTWIRQSPGKGLEWIGHIYYSGNTNYNPSLKSRLTISIDTSKTQFSLKLSSVTAADTAIYYCVRDRVTGAFDIWGQGTMVTVSS
As to B2, the Kd in experiment [1] came out at 5.47 nM; in experiment [2], 4.16 nM.

B3: IgFD-30(anti-CD3/EGFR) (bispecific antibody, human IgG1, kappa)
chain 1: EVQLVESGGGLVQPGGSLRLSCAASGFTFNTYAMNWVRQAPGKGLEWVARIRSKYNNYATYYADSVKDRFTISRDDSKNTLYLQMNSLRAEDTAVYYCVRHGNFGNSYVSWFAYWGQGTLVTVSSASTKGPSVFPLAPSSKSTSGGTAALGCLVKDYFPEPVTVSWNSGALTSGVHTFPAVLQSSGLYSLSSVVTVPSSSLGTQTYICNVNHKPSNTKVDKKVEPKSCDKTHTCPPCPAPPVAGPSVFLFPPKPKDTLMISRTPEVTCVVVDVSHEDPEVKFNWYVDGVEVHNAKTKPREEQYNSTYRVVSVLTVLHQDWLNGKEYKCKVSNKGLPSSIEKTISKAKGQPREPQVYTLPPCRDELTKNQVSLWCLVKGFYPSDIAVEWESNGQPENNYKTTPPVLDSDGSFFLYSKLTVDKSRWQQGNVFSCSVMHEALHNHYTQKSLSLSPGKGGSGGSGGGGSGGGGSDIQMTQSPSSLSASVGDRVTITCQASQDISNYLNWYQQKPGKAPKLLIYDASNLETGVPSRFSGSGSGTDFTFTISSLQPEDIATYFCQHFDHLPLAFGGGTKVEIK
chain 2: QAVVTQEPSLTVSPGGTVTLTCRSSTGAVTTSNYANWVQQKPDHLFRGLIGGTNKRAPGTPARFSGSLLGDKAALTISGAQPEDEAEYYCALWYSNLWVFGGGTKLTVLKRTVAAPSVFIFPPSDEQLKSGTASVVCLLNNFYPREAKVQWKVDNALQSGNSQESVTEQDSKDSTYSLSSTLTLSKADYEKHKVYACEVTHQGLSSPVTKSFNRGECDKTHTCPPCPAPPVAGPSVFLFPPKPKDTLMISRTPEVTCVVVDVSHEDPEVKFNWYVDGVEVHNAKTKPREEQYNSTYRVVSVLTVLHQDWLNGKEYKCKVSNKGLPSSIEKTISKAKGQPREPQVCTLPPSRDELTKNQVSLSCAVKGFYPSDIAVEWESNGQPENNYKTTPPVLDSDGSFFLVSKLTVDKSRWQQGNVFSCSVMHEALHNHYTQKSLSLSPGKGGSGGSGGGGSGGGGSQVQLQESGPGLVKPSETLSLTCTVSGGSVSSGDYYWTWIRQSPGKGLEWIGHIYYSGNTNYNPSLKSRLTISIDTSKTQFSLKLSSVTAADTAIYYCVRDRVTGAFDIWGQGTMVTVSS
notes: (ProA)/(CH1) = purification resin; also called IgFD-30(ProA); IgFD-30(CH1)
For B3, the dissociation constant (Kd) in experiment [4] was found to be 86.3 nM; in experiment [5], 6.74 nM; in experiment [6], 7.35 nM; in experiment [7], 131 nM. In experiment [3], the “Promotion for the specific killing effect of PBMCs on target cells by heterodimers (EC50, pM); F98-EGFR cells, LDH assay; IgFD-30(CH1)” value was found to be 435 pM. Also, the “Promotion for the specific killing effect of PBMCs on target cells by heterodimers (EC50, pM); F98-EGFR cells, LDH assay; IgFD-30(ProA)” value in experiment [3] is 651 pM.

B4: IgFD-26(anti-CD3/EGFR) (bispecific antibody, human IgG1, kappa, N297A)
chain 1: not shown
chain 2: QAVVTQEPSLTVSPGGTVTLTCRSSTGAVTTSNYANWVQQKPDHLFRGLIGGTNKRAPGTPARFSGSLLGDKAALTISGAQPEDEAEYYCALWYSNLWVFGGGTKLTVLKRTVAAPSVFIFPPSDEQLKSGTASVVCLLNNFYPREAKVQWKVDNALQSGNSQESVTEQDSKDSTYSLSSTLTLSKADYEKHKVYACEVTHQGLSSPVTKSFNRGECDKTHTCPPCPAPELLGGPSVFLFPPKPKDTLMISRTPEVTCVVVDVSHEDPEVKFNWYVDGVEVHNAKTKPREEQYASTYRVVSVLTVLHQDWLNGKEYKCKVSNKALPAPIEKTISKAKGQPREPQVCTLPPSREEMTKNQVSLSCAVKGFYPSDIAVEWESNGQPENNYKTTPPVLDSDGSFFLVSKLTVDKSRWQQGNVFSCSVMHEALHNHYTQKSLSLSPGKGGSGGSGGGGSGGGGSDIQMTQSPSSLSASVGDRVTITCQASQDISNYLNWYQQKPGKAPKLLIYDASNLETGVPSRFSGSGSGTDFTFTISSLQPEDIATYFCQHFDHLPLAFGGGTKVEIKGGGGSGGGGSGGGGSQVQLQESGPGLVKPSETLSLTCTVSGGSVSSGDYYWTWIRQSPGKGLEWIGHIYYSGNTNYNPSLKSRLTISIDTSKTQFSLKLSSVTAADTAIYYCVRDRVTGAFDIWGQGTMVTVSS
Consider B4, for which the figures for the Kd in experiment [1] and in experiment [2] were 5.28 nM and 4.23 nM, respectively. The “Promotion for the specific killing effect of PBMCs on target cells by heterodimers (EC50, pM); F98-EGFR cells, LDH assay” value in experiment [3] was found to be 105 pM.
